Assay results taken from paper PMC4490372, “Architecture of TFIIIC and its role in RNA polymerase III pre-initiation complex assembly” (Nature Communications, 2015).

What was measured:
Assay in all cases: pull-down; 15 μg GST-τ138 (641–693) on Glutathione Sepharose 4B; 900 nM wild-type or mutant τ131; 50 mM Tris pH 7.5, 150 mM NaCl, 2 mM DTT, 0.1% Tween20; 4 °C, 4 h
Settings in all cases: both partners purified
[1] = molecular target: T1, τ131 (123–566) E498K (S. cerevisiae, UniProt P33339 123-566, E498K)
T1 construct: source: E. coli, purified by the same method as the wild type; not shown: His6, N-terminal, cleaved
T1 sequence (looked up): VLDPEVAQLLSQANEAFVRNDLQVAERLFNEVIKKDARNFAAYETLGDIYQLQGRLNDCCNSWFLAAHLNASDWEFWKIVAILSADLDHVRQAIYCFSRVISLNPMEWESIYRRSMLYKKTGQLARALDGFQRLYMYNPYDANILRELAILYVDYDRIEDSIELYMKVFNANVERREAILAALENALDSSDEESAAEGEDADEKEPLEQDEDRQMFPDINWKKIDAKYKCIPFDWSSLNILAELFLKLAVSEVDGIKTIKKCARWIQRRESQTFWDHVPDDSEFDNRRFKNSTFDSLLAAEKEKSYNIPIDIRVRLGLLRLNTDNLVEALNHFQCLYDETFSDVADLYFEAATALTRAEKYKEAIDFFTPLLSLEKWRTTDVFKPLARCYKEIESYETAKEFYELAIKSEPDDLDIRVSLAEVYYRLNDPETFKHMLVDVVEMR

[2] = molecular target: T2, τ131 (123–566) E472K (S. cerevisiae, UniProt P33339 123-566, E472K)
T2 construct: source: E. coli, purified by the same method as the wild type; not shown: His6, N-terminal, cleaved
T2 sequence (looked up): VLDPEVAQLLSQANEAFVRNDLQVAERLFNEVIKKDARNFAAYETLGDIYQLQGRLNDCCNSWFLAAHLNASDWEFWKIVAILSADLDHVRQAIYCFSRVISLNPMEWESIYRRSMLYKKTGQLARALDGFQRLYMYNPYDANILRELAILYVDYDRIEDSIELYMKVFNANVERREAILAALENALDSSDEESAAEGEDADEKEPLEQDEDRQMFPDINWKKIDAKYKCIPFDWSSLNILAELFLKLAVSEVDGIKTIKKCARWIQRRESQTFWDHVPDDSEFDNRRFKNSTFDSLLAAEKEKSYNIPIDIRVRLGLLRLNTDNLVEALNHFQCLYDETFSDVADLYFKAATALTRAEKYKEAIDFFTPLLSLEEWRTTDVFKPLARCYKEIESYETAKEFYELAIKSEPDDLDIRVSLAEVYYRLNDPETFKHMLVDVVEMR

[3] = molecular target: T3, τ131 (123–566) E497K (S. cerevisiae, UniProt P33339 123-566, E497K)
T3 construct: source: E. coli, purified by the same method as the wild type; not shown: His6, N-terminal, cleaved
T3 sequence (looked up): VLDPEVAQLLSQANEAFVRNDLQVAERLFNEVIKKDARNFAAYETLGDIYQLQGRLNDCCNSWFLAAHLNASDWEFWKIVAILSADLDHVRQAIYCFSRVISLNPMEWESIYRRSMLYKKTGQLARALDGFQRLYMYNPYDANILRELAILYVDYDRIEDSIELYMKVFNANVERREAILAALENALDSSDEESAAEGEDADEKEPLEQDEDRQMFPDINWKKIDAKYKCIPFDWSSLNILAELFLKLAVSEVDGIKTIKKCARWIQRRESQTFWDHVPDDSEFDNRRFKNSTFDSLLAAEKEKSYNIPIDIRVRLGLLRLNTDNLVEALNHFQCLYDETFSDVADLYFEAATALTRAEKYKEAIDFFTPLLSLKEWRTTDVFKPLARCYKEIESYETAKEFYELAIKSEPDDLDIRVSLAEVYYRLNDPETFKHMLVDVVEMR

binding result [1]: binds
binding result [2]: binds
binding result [3]: binds
B1: GST-τ138 (641–693) (domain or fragment, S. cerevisiae, UniProt P34111 641-693, looked up)
chain: SKKATFTDVIHDTEIYFFDQTEKNRFHRGKKSVERIRKFQNRQKNAKIKASDD
notes: also called GST-tagged τ138; source: E. coli BL21 (DE3) Gold, purified (GST column, S200 SEC)
